The values that follow come from publication PMC8837617.

In the assay the target is MAPK ERK2 (human), P28482. Nature of the assay: FP. As to conditions: modification not given.
Chain of MAPK ERK2 (human), P28482 (P28482 whole entry): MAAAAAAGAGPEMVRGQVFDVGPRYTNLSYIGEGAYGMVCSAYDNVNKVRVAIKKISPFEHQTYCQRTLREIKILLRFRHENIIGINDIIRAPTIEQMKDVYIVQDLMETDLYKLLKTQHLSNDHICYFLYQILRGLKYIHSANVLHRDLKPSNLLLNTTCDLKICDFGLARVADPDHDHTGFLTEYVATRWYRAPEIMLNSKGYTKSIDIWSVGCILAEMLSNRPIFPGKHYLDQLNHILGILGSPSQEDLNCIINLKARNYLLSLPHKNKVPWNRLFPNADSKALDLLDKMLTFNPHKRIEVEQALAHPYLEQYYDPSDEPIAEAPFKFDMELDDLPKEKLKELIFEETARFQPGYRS

For orientation: Ki means a dissociation constant, usually derived from enzyme kinetics or from competition with a known ligand. High values mean lower affinity, low ones higher affinity. The molecule QGKRKALKLNFANP [MKK4] yielded a Ki of 431 µM.
Consider SKGKKRNPGLKIPK [MKK6], for which the Ki stood at 65 µM.
